{"source": "patent US20060172386A1", "key": {"[1]": {"molecular_target": "recombinant extracellular domain of FGFR-2c", "assay": "SPR (BIACORE 2000), FGF-20 fixed on CM5 chip, receptor extracellular domain as analyte"}, "[2]": {"molecular_target": "recombinant extracellular domain of FGFR-3c", "assay": "SPR (BIACORE 2000), FGF-20 fixed on CM5 chip, receptor extracellular domain as analyte"}}}
{"substance": "Recombinant FGF-20 (from UniProt Q9EST9 1-212) (ligand)", "values": [{"measurement": "Kd", "setting": "[1]", "value": 28.1, "unit": "nM"}, {"measurement": "koff", "setting": "[1]", "value": 0.0167, "unit": "s⁻¹"}, {"measurement": "kon", "setting": "[1]", "value": 595000, "unit": "M⁻¹ s⁻¹"}, {"measurement": "Kd", "setting": "[2]", "value": 217, "unit": "nM"}, {"measurement": "koff", "setting": "[2]", "value": 0.0247, "unit": "s⁻¹"}, {"measurement": "kon", "setting": "[2]", "value": 115000, "unit": "M⁻¹ s⁻¹"}]}
